From PMC11157483

Biological target: Aplysia californica acetylcholine binding protein (Aplysia californica)
Assay: cross-linking

Aplysia californica acetylcholine binding protein (natural protein)
stoichiometry N: 5
